# Source: publication doi:10.1101/765990 (bioRxiv, 2019)
# B1: Sed5p SNARE-motif (amino acids 211-320), wild type (domain or fragment)
# chain: SLLDESSEKNNNSSNQGELSFPQNDSQLMLMEEGQLSNNVYLQERNRAVETIESTIQEVGNLFQQLASMVQEQGEVIQRIDANVDDIDLNISGAQRELLKYFDRIKSNRW
# Molecular target: T1, Sed5p Habc domain (amino acids 1-210) (budding yeast, UniProt Q01590 1-210)
# T1 sequence: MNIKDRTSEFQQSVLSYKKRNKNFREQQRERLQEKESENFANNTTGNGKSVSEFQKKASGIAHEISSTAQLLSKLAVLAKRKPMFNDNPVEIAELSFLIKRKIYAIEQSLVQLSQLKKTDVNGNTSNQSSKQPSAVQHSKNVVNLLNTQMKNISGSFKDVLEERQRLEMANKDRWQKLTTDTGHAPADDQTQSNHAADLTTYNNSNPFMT
# Test: native gel or EMSA
binder,measurement,value
B1,binding result,binds
